In US20210253716A1 (Regeneron, published 2021):
Substitutions are numbered along the chain they refer to.

T1: full length human ACVR1 (R206H) on HEK293/BRE-luc/hACVR1-R206H-clone H2 cells (human, UniProt Q04771 21-509)
T1 sequence: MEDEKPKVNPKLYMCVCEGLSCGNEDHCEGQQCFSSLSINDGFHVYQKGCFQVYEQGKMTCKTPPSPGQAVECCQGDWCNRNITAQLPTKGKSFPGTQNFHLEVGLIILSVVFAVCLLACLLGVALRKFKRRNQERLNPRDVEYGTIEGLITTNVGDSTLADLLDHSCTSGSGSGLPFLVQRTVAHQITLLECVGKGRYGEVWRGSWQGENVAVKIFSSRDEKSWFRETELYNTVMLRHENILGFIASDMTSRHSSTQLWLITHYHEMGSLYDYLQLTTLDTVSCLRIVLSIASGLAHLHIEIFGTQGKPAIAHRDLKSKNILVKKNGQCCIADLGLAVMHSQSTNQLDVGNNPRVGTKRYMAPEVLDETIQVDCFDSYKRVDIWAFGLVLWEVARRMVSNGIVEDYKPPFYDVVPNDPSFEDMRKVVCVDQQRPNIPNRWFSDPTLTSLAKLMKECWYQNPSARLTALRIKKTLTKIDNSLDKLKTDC

T2: human ACVR1 extracellular domain expressed with a C-terminal mouse IgG2a Fc tag (human)
T2 construct: also called hACVR1-mFc
T2 chain: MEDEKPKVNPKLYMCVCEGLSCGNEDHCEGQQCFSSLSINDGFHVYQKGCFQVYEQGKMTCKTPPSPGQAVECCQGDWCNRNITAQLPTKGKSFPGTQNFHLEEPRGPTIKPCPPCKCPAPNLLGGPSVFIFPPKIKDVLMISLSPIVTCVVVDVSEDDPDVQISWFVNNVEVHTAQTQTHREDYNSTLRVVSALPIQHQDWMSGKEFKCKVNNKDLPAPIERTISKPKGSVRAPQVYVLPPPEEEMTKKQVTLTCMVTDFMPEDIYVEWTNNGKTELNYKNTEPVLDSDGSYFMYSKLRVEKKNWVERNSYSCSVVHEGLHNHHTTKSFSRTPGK

T3: human ACVR1 extracellular domain expressed with a C-terminal myc-myc-hexahistidine tag (human)
T3 construct: also called hACVR1-MMH
T3 chain: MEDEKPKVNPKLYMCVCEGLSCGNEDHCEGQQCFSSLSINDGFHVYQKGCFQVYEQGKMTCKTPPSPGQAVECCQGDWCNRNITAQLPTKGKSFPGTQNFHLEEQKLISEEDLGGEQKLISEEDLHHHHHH

T4: mouse ACVR1 extracellular domain expressed with a C-terminal myc-myc-hexahistidine tag (mouse)
T4 construct: also called mACVR1-MMH; mACVR1-mmh
T4 chain: T3 chain with M1V, P10Q

B1: mAb29257 (antibody, human IgG4 S228P, kappa, V domains shown)
VH: EVQLVESGGNLVQPGGSLRLSCAASGFTFSNYAMSWVRQAPGKGLEWVSGITGNGIKTYYSVSAKGRFTISRDNSKNTLFLQMNSLRAEDTAIYYCVKERGHSWFGDWFDPWGQGTLVTVSS
VL: DIVMTQTPLSSPVTLGQPASISCRSSQGLVNSDGNTYLSWLHQRPGQPPRLLIYEISNRFSGVPDRFSGSGAGTDFTLKISRVEAEDVGFYYCMQSTQFPLTFGGGTKVEIKR
B2: mAb27245 (antibody, human IgG4 S228P, kappa, V domains shown)
VH: QVQLQQWGAGLLKPSETLSLTCAVYNGSFSSYYWNWIRQPPGKGLEWLGEINHRGSTNYNPSLTSRVTISVDTSKNQFSLKLTSVTAADTAIYYCTAHTRGFLYWGQGTLVTVSS
VL: DIQMTQSPSSLSASVGDRVTITCQASQDINNYLNWYQQKPGKAPKLLIYDASNLVPGVPSRFSGTGSGTDFSFTISSLQPEDIATYYCQHYYDLPLTFGGGTTVAIRR
B3: mAb27241 (antibody, human IgG4 S228P, kappa, V domains shown)
VH: B2 VH
VL: B2 VL with N31I, K39Q, A51V, D70H, Y92D
B4: mAb29226 (antibody, human IgG4 S228P, kappa, V domains shown)
VH: EVQLVESGGGLVQPGRSLRLSCAASGFTFDDYGMHWVRQAPGKGLEWVSVISWNSATIDYADSVKGRFTISRDNAKNSLFLQMNSLRPEDTALYYCAKKNSLGWFFDYWGQGTLVTVSS
VL: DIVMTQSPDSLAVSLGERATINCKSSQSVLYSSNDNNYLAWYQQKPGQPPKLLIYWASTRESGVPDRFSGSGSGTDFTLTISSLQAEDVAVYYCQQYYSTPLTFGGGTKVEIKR

Each binder was assayed against T1, full length human ACVR1 (R206H) on … (assay: cell-based or functional assay).
In the case of B1, the “% Inhibition, BRE-luc reporter, 2 nM hBMP7” value (from here on “% Inhibition”) is reported as 62% and the “IC50 [M], BRE-luc reporter, 2 nM hBMP7” value is reported as 1.4e-10 M. With B2 the “% Inhibition” value was 110% and the “IC50 [M], BRE-luc reporter, 2 nM hBMP7” value was 1.5e-09 M. B3 was tested, and the “% Inhibition” value was 110% and the “IC50 [M], BRE-luc reporter, 2 nM hBMP7” value was 1.8e-09 M. In the case of B4, the “% Inhibition” value is reported as 70% and the “IC50 [M], BRE-luc reporter, 2 nM hBMP7” value is reported as 7.3e-10 M.

Target: T2, human ACVR1 extracellular domain …
Assay: SPR (Biacore), mAb captured, 37 C
Experimental: (§1) Equilibrium dissociation constants (KD) for ACVR1 binding to purified anti-ACVR1 monoclonal antibodies were determined using a real-time surface plasmon resonance biosensor (SPR-Biacore), Biacore 4000. All binding studies were performed in 10 mM HEPES, 150 mM NaCl, 3 mM EDTA, and 0.05% v/v surfactant Tween-20, pH 7.4 (HBS-ET) running buffer at 25° C. and 37° C. The Biacore CM5 sensor surface was first derivatized by amine coupling with a monoclonal mouse anti-human Fc antibody (GE, #BR-1008-39 or REGN2567) to capture anti-ACVR1 monoclonal antibodies. […] ACVR1 reagents were then injected over anti-human Fc captured anti-ACVR1 monoclonal antibody surface for 2.5-3 minutes at a flow rate of 30 μL/minute, while the dissociation of monoclonal antibody bound ACVR1 reagent was monitored for 10-15 minutes in HBS-ET running buffer. Kinetic association rate constant (kₐ) and dissociation rate constant (kd) were determined by fitting the real-time sensorgrams to a 1:1 binding model using Scrubber 2.0c curve-fitting software. Binding dissociation equilibrium constants (KD) and dissociative half-lives (t½) were calculated from the kinetic rate constants as: […]
With B1 the “100 nM Ag Bound (RU)” value was 201 RU, the Kd was 1.58 nM and the koff was 0.000495 s⁻¹. For the same binder, the kon was 314000 M⁻¹ s⁻¹ and the t½ was 23 min. B2 was tested, and the “100 nM Ag Bound (RU)” value was 222 RU, the Kd was 3.65 nM and the koff was 0.000335 s⁻¹. For the same binder, the kon was 91700 M⁻¹ s⁻¹ and the t½ was 34 min. In the case of B3, the “100 nM Ag Bound (RU)” value is reported as 216 RU, the Kd is reported as 2.44 nM and the koff is reported as 0.000201 s⁻¹. It also gave a kon of 82200 M⁻¹ s⁻¹ and a t½ of 57 min. For B4, the “100 nM Ag Bound (RU)” value was 212 RU, the Kd was 1.53 nM and the koff was 0.000521 s⁻¹. For the same binder, the kon was 340000 M⁻¹ s⁻¹ and the t½ was 22 min.

Target: T3, human ACVR1 extracellular domain …
Assay: SPR (Biacore), mAb captured, 37 C
Experimental: as §1
With B1 the “900 nM or 100 nM Ag Bound (RU)” value was 64 RU, the Kd was 21.4 nM and the koff was 0.00326 s⁻¹. For the same binder, the kon was 153000 M⁻¹ s⁻¹ and the t½ was 3.5 min. In the case of B2, the “900 nM or 100 nM Ag Bound (RU)” value is reported as 66 RU, the Kd is reported as 32.2 nM and the koff is reported as 0.00173 s⁻¹. It also gave a kon of 53900 M⁻¹ s⁻¹ and a t½ of 7 min. In the case of B3, the “900 nM or 100 nM Ag Bound (RU)” value is reported as 66 RU, the Kd is reported as 19.7 nM and the koff is reported as 0.000852 s⁻¹. For the same binder, the kon was 43200 M⁻¹ s⁻¹ and the t½ was 14 min. B4 was tested, and the “900 nM or 100 nM Ag Bound (RU)” value was 68 RU, the Kd was 25 nM and the koff was 0.00456 s⁻¹. The kon was 182000 M⁻¹ s⁻¹ and the t½ was 2.5 min.

Target: T4, mouse ACVR1 extracellular domain …
Assay: SPR (Biacore), mAb captured, 37 C
Experimental: as §1
B1 was tested, and the “900 nM or 100 nM Ag Bound (RU)” value was 2 RU. In the case of B2, the “900 nM or 100 nM Ag Bound (RU)” value is reported as 2 RU. For B3, the “900 nM or 100 nM Ag Bound (RU)” value was 2 RU. In the case of B4, the “900 nM or 100 nM Ag Bound (RU)” value is reported as 2 RU.

Target: T2, human ACVR1 extracellular domain …
Assay: SPR (Biacore), mAb captured, 25 C
Experimental: as §1
In the case of B1, the “100 nM Ag Bound (RU)” value is reported as 157 RU, the Kd is reported as 0.936 nM and the koff is reported as 0.000121 s⁻¹. The kon was 129000 M⁻¹ s⁻¹ and the t½ was 95 min. With B2 the “100 nM Ag Bound (RU)” value was 145 RU, the Kd was 1.34 nM and the koff was 5.06e-05 s⁻¹. It also gave a kon of 38100 M⁻¹ s⁻¹ and a t½ of 228 min. With B3 the “100 nM Ag Bound (RU)” value was 135 RU, the Kd was 0.918 nM and the koff was 3.2e-05 s⁻¹. It also gave a kon of 34900 M⁻¹ s⁻¹ and a t½ of 361 min. With B4 the “100 nM Ag Bound (RU)” value was 188 RU, the Kd was 0.767 nM and the koff was 0.000161 s⁻¹. For the same binder, the kon was 210000 M⁻¹ s⁻¹ and the t½ was 72 min.

Target: T3, human ACVR1 extracellular domain …
Assay: SPR (Biacore), mAb captured, 25 C
Experimental: as §1
B1 was tested, and the “900 nM or 100 nM Ag Bound (RU)” value was 47 RU, the Kd was 8.43 nM and the koff was 0.000521 s⁻¹. The kon was 61800 M⁻¹ s⁻¹ and the t½ was 22 min. For B2, the “900 nM or 100 nM Ag Bound (RU)” value was 35 RU, the Kd was 8.01 nM and the koff was 0.000207 s⁻¹. It also gave a kon of 25800 M⁻¹ s⁻¹ and a t½ of 56 min. B3 was tested, and the “900 nM or 100 nM Ag Bound (RU)” value was 34 RU, the Kd was 6.52 nM and the koff was 0.000123 s⁻¹. For the same binder, the kon was 18900 M⁻¹ s⁻¹ and the t½ was 94 min. B4 was tested, and the “900 nM or 100 nM Ag Bound (RU)” value was 57 RU, the Kd was 8.27 nM and the koff was 0.000937 s⁻¹. For the same binder, the kon was 113000 M⁻¹ s⁻¹ and the t½ was 12 min.

Target: T4, mouse ACVR1 extracellular domain …
Assay: SPR (Biacore), mAb captured, 25 C
Experimental: as §1
With B1 the “900 nM or 100 nM Ag Bound (RU)” value was -2 RU. For B2, the “900 nM or 100 nM Ag Bound (RU)” value was 1 RU and the binding result was “no binding (tested: 900 nM or 100 nM)”. With B3 the “900 nM or 100 nM Ag Bound (RU)” value was 1 RU and the binding result was “no binding (tested: 900 nM or 100 nM)”. In the case of B4, the “900 nM or 100 nM Ag Bound (RU)” value is reported as 2 RU and the binding result is reported as “no binding (tested: 900 nM or 100 nM)”.

The binders below were run against T1, full length human ACVR1 (R206H) on … (assay: flow cytometry, 70 nM antibody, HEK293/hACVR1-R206H cells).
Experimental: Cells were fixed using BD CytoFix™ (Becton Dickinson, #554655) and analyzed on either Hypercyt® or IQue® Flow Cytometers (Intellicyt®). Unstained and secondary antibody alone controls were also tested for all cell lines. The results were analyzed using ForeCyt® (IntelliCyt®) software to determine the geometric means of fluorescence for viable cells and binding ratios were calculated by normalizing the geometric mean value of the test condition by the geometric mean value of the corresponding unstained cells.
For B1, the “MFI - Normalized to Unstained Control” value was 1660 fold. In the case of B2, the “MFI - Normalized to Unstained Control” value is reported as 1660 fold. With B3 the “MFI - Normalized to Unstained Control” value was 1160 fold. In the case of B4, the “MFI - Normalized to Unstained Control” value is reported as 1900 fold.
